From publication PMC3314968, “The UBAP1 Subunit of ESCRT-I Interacts with Ubiquitin via a SOUBA Domain” (Structure(London, England:1993), 2012)

Target: T1, monoubiquitin (SIGMA U6253) (UniProt P0CG48 1-76)
T1 construct: ubiquitin, the 76-residue cut product of a ubiquitin precursor; source: bought: SIGMA U6253
Assay: ITC; Microcal ITC200; 20 mM Tris-HCl (pH 7.5), 100 mM NaCl, 1 mM TCEP; SOUBA domain at 150 μM in the cell, 38 injections of monoubiquitin at 3 mM; single set of independent sites
Settings: both partners purified

B1: human UBAP1 SOUBA domain (389-502), wild-type (domain or fragment, UniProt Q9NZ09 389-502, looked up)
chain: SPSERQCVETVVNMGYSYECVLRAMKKKGENIEQILDYLFAHGQLCEKGFDPLLVEEALEMHQCSEEKMMEFLQLMSKFKEMGFELKDIKEVLLLHNNDQDNALEDLMARAGAS
notes: UBAP1, human, residues 389-502 (SOUBA domain); The His6 tag is followed by a TEV protease cleavage site; whether it was cut is told in the Supplemental Experimental Procedures; Used unlabeled or 15N- (13C/15N-) labeled in NMR; also called UBAP1(389-502); UBAP1_389-502; source: recombinant, from the pOPTH(tev) expression vector, purified (details in Supplemental Experimental Procedures)
B1 was tested, and the Kd was about 70 µM.
